Experimental data from the supplement of paper PMC7877785.
± gives the uncertainty stated by the source.

Test: self-splicing fitness, log relative to wild type (ln ratio); higher = more splicing; Tetrahymena group I intron in knt gene, E. coli kanamycin selection, DiMSum; sequences stand for … in CUCUCU…GGAGGGAAAAGUUAUCAGGCAUGCACCUGGUAGCUAGUCUUUAAACCAAUAGAUUGCAUCGGUUUAAAAGGCAAGACCGUCAAAUUGCGGGAAAGGGGUCAACAGCCGUUCAGUACCAAGUCUCAGGGGAAACUUUGAGAUGGCCUUGCAAAGGGUAUGGUAAUAAGCUGACGGACAUGGUCCUAACCACGCAGCCAAGUCCUAAGUCAACAGAUCUUCUGUUGAUAUGGAUGCAGUUCACAGACUAAAUGUCGGUCGGGGAAGAUGUAUUCUUCUCAUAAGAUAUAGUCGGACCUCUCCUUAAUGGGAGCUAGCGGAUGAAGUGAUGCAACACUGGAGCCGCUGGGAACUAAUUUGUAUGCGAAAGUAUAUUGAUUAGUUUUGGAGUACUCGUGGUCG
In short: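 DiMSum derived fitness as the error-weighted combination of fold changes across replicates, kanamycin versus no kanamycin, normalised to wild type. E. coli BL21(DE3) held the library, which randomised all eight P1ex-region intron nucleotides within the knt kanamycin-resistance gene on pET-22b(+). Six replicate transformations grew overnight at 37°C or 30°C on LB agar with or without 25 μg/mL kanamycin, also containing 100 μg/mL carbenicillin, 50 μM IPTG and 0.2% rhamnose, and pooled colonies were amplicon-sequenced on an Illumina HiSeq 2500.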

Sequence | self-splicing fitness (ln) (30 °C) | self-splicing fitness (ln) (37 °C)
CUAAAGCAAUAUUACGCUCC | -3.15 ± 0.29 | -2.29 ± 0.35
CCAUAGCAAUAUUACGGAGG | -3.57 ± 0.21 | -0.997 ± 0.15
CUCGAGCAAUAUUACGUAGC | – | -2.19 ± 0.27
CUUCAGCAAUAUUACGACCU | -2.42 ± 0.21 | -1.7 ± 0.27
AAUAAGCAAUAUUACGUUAG | -4.52 ± 0.19 | -2.69 ± 0.17
GGCGAGCAAUAUUACGACCU | -0.951 ± 0.19 | -0.976 ± 0.39
AAAGAGCAAUAUUACGCUGA | -2.1 ± 0.14 | -2.6 ± 0.26
GUACAGCAAUAUUACGGAUG | -2.79 ± 0.2 | -1.8 ± 0.17
CUUCAGCAAUAUUACGCACG | -1.02 ± 0.085 | -0.456 ± 0.13
UUGCAGCAAUAUUACGUACG | -0.368 ± 0.08 | 0.233 ± 0.1
AAAUAGCAAUAUUACGUGGG | -3.39 ± 0.2 | -2.49 ± 0.2
